# Data reported in the supplement of paper PMC9732359.
# ± gives the uncertainty stated by the source.
# Assay: protein stability index of a GFP-peptide fusion (yeast GPS) (PSI 1-4); higher = more stable; sorted into four equal gates, so the index is relative within each strain
# Method in brief: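 The protein stability index combines read frequencies across sorting gates, each weighted by its gate number and then summed. To obtain those frequencies, a pooled yeast library of GFP fusions to tiled 17-residue yeast protein peptides, on a plasmid also expressing Cherry, was grown to mid-log phase in leucine-free medium. The cells were sorted into four equal gates by GFP/Cherry ratio before plasmid amplification by PCR and Illumina sequencing.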
sequence,measurement,setting,value
TFSQESGLMVILYTSKI [RRI2],protein stability index,doa10∆,2.78 ± 0.076
same,protein stability index,pdr5∆,3.05 ± 0.084
same,protein stability index,san1∆,2.6 ± 0.085
same,protein stability index,ubr1∆,2.94 ± 0.053
EDTELYQELIKNGALVS [YJL039C/NUP192],protein stability index,pdr5∆,2.77 ± 0.087
same,protein stability index,san1∆,3.21 ± 0.11
same,protein stability index,ubr1∆,2.57 ± 0.069
YNVKNIIQGRKNFDMLN [PCI8],protein stability index,doa10∆,2.51 ± 0.035
same,protein stability index,pdr5∆,2.52 ± 0.037
same,protein stability index,san1∆,2.72 ± 0.039
same,protein stability index,ubr1∆,2.58 ± 0.028
EDIIANYASVYPVVEVE [RRP43],protein stability index,doa10∆,2.47 ± 0.098
same,protein stability index,pdr5∆,2.77 ± 0.092
same,protein stability index,san1∆,2.85 ± 0.14
same,protein stability index,ubr1∆,2.72 ± 0.079
SKSAFSFGSKPTGKEEG [YJL041W/NSP1],protein stability index,doa10∆,3.26 ± 0.058
same,protein stability index,pdr5∆,3.34 ± 0.052
same,protein stability index,san1∆,3.36 ± 0.069
same,protein stability index,ubr1∆,3.16 ± 0.067
QRVFDETEQEYSPSNEI [YDL116W/NUP84],protein stability index,doa10∆,3.28 ± 0.067
same,protein stability index,pdr5∆,3.46 ± 0.069
same,protein stability index,san1∆,3.21 ± 0.058
same,protein stability index,ubr1∆,3.29 ± 0.043
MSSQISSLIPHCITSIT [MTR3],protein stability index,doa10∆,1.77 ± 0.061
same,protein stability index,pdr5∆,2.08 ± 0.061
same,protein stability index,san1∆,2.07 ± 0.073
same,protein stability index,ubr1∆,2.47 ± 0.075
SPTYSPTSPAYSPTSPS [RPO21],protein stability index,doa10∆,3.08 ± 0.045
same,protein stability index,pdr5∆,3.05 ± 0.042
same,protein stability index,san1∆,3 ± 0.032
same,protein stability index,ubr1∆,2.93 ± 0.033
GVSLLIAGHDEFNGFSL [PRE8],protein stability index,doa10∆,1.99 ± 0.18
same,protein stability index,pdr5∆,2.18 ± 0.1
same,protein stability index,san1∆,1.97 ± 0.1
same,protein stability index,ubr1∆,2.07 ± 0.093
ANPVVATDPVAAKPDNL [SWP82],protein stability index,doa10∆,3.26 ± 0.087
same,protein stability index,pdr5∆,3.15 ± 0.097
same,protein stability index,san1∆,3.23 ± 0.085
same,protein stability index,ubr1∆,3.1 ± 0.05
NNRISNANEISANTNNT [SWP82],protein stability index,doa10∆,2.14 ± 0.05
same,protein stability index,pdr5∆,2.25 ± 0.049
same,protein stability index,san1∆,2.54 ± 0.066
same,protein stability index,ubr1∆,2.66 ± 0.048
AQAAQAAQAQAQAQAQA [GAL11],protein stability index,doa10∆,2.53 ± 0.041
same,protein stability index,pdr5∆,2.87 ± 0.046
same,protein stability index,san1∆,2.71 ± 0.034
same,protein stability index,ubr1∆,2.82 ± 0.044
EKSAYKFFHNGMIYNKL [FAS2],protein stability index,doa10∆,2.92 ± 0.086
same,protein stability index,pdr5∆,2.81 ± 0.07
same,protein stability index,san1∆,2.88 ± 0.071
same,protein stability index,ubr1∆,2.83 ± 0.064
EANGATSFDRTKKTITP [RPL3],protein stability index,doa10∆,3.12 ± 0.15
same,protein stability index,pdr5∆,2.91 ± 0.15
same,protein stability index,san1∆,2.74 ± 0.12
same,protein stability index,ubr1∆,3.17 ± 0.27
EIGPSPTLAGMAQRTLK [FAS2],protein stability index,doa10∆,2.392 ± 0.02
same,protein stability index,pdr5∆,2.559 ± 0.021
same,protein stability index,san1∆,2.546 ± 0.021
same,protein stability index,ubr1∆,2.45 ± 0.015
ARIHAQNYLKTYNEDIP [PRE9],protein stability index,doa10∆,2.28 ± 0.051
same,protein stability index,pdr5∆,1.99 ± 0.079
same,protein stability index,san1∆,2.75 ± 0.085
same,protein stability index,ubr1∆,2.05 ± 0.061
AFKATNQTNINSLAVRG [SCL1],protein stability index,doa10∆,3.1 ± 0.11
same,protein stability index,pdr5∆,3.21 ± 0.085
same,protein stability index,ubr1∆,2.84 ± 0.11
RRNRYKTYYGIHCLAVR [RPN7],protein stability index,doa10∆,1.23 ± 0.05
same,protein stability index,pdr5∆,1.38 ± 0.073
same,protein stability index,san1∆,1.29 ± 0.13
same,protein stability index,ubr1∆,1.17 ± 0.044
IPPLNKSLAMEHKSQVV [CSN12],protein stability index,doa10∆,1.26 ± 0.063
same,protein stability index,pdr5∆,1.63 ± 0.078
same,protein stability index,san1∆,1.49 ± 0.12
same,protein stability index,ubr1∆,1.35 ± 0.071
RSLGLQQVVCIFSYGPH [POP6],protein stability index,doa10∆,1.51 ± 0.028
same,protein stability index,pdr5∆,1.7 ± 0.037
same,protein stability index,san1∆,1.57 ± 0.049
same,protein stability index,ubr1∆,1.64 ± 0.026
TDYARAKNRILASKIKQ [RRI1],protein stability index,doa10∆,1.93 ± 0.097
same,protein stability index,pdr5∆,2.07 ± 0.072
same,protein stability index,san1∆,1.94 ± 0.091
same,protein stability index,ubr1∆,1.91 ± 0.063
KIIALQPNEISFKYLSN [RGR1],protein stability index,doa10∆,2.43 ± 0.12
same,protein stability index,pdr5∆,2.38 ± 0.12
same,protein stability index,ubr1∆,2.48 ± 0.098
LNPQVADINKNFLSVIT [RPN2],protein stability index,doa10∆,1.81 ± 0.065
same,protein stability index,pdr5∆,2.19 ± 0.053
same,protein stability index,san1∆,1.98 ± 0.071
same,protein stability index,ubr1∆,1.95 ± 0.053
ATMENIQKGKFTLLDFK [SRP54],protein stability index,doa10∆,2.98 ± 0.068
same,protein stability index,pdr5∆,3.04 ± 0.081
same,protein stability index,san1∆,2.42 ± 0.089
same,protein stability index,ubr1∆,2.96 ± 0.046
TRGRSATIRETYEIICD [RRP43],protein stability index,doa10∆,2.59 ± 0.049
same,protein stability index,pdr5∆,2.68 ± 0.05
same,protein stability index,san1∆,2.57 ± 0.058
same,protein stability index,ubr1∆,2.62 ± 0.035
QAAAKPSLEKSSFTFGS [YLR335W/NUP2],protein stability index,doa10∆,3.04 ± 0.1
same,protein stability index,pdr5∆,2.97 ± 0.1
same,protein stability index,san1∆,2.97 ± 0.18
same,protein stability index,ubr1∆,2.73 ± 0.075
